B1: TPR t1 (parent)
chain: GACCAAUCUGCCCUCAGAGCUCGAGAACAUCUUCGGAUGCAGAGGAGGCAGGCUUCGGUGGCGCGAUAGCGCCAACGUCCUCAACCUCCAAUGCAUCCCACCACAUGAUGAUGCCUGAAGAGCCUUGGUUUUUUG

Variants of: B1
Experiment: polymerase ribozyme fitness, log enrichment relative to wild type (log ratio); higher = more active; in vitro selection for triplet polymerase activity
Method in brief: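 Streptavidin-bead capture of gel-excised extended constructs, followed by RT-PCR, closed a single triplicate in vitro selection round. That round began by annealing PCR-built, transcribed mutant libraries of each subunit of a heterodimeric triplet polymerase ribozyme with a biotinylated primer, the partner subunit and triplets, then incubating them frozen at −7 °C. After Illumina sequencing of inputs and outputs, genotypes needed ≥10 input reads and ≥1 read per output. Fitness is the base-2 logarithm of genotype enrichment over wild-type enrichment, using inverse-variance-weighted replicate averages.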

Going from G10A G120U to G10A C12U U14C C56G G63C G117U U129A, the “polymerase ribozyme fitness (log ratio)” value falls from 1.07 to -3.92.

Going from U9G C56G A103U to G10A U87A C115G C123G, the “polymerase ribozyme fitness (log ratio)” value rises from -4.39 to -1.54.

Compared with G10A C15G C82A G93A, U9G U32C U59A U131A is higher in “polymerase ribozyme fitness (log ratio)” value: -4.03 for the first, -0.0228 for the second.

Going from G10A C70A G122A to G10A G42U C49A C70G C98A U112G U130G, the “polymerase ribozyme fitness (log ratio)” value falls from -1.23 to -6.93.

Compared with U9G G52U C82U, U9G G36A is higher in “polymerase ribozyme fitness (log ratio)” value: -1.33 for the first, -0.196 for the second.

Going from U9G G10U C70G U109G to U9G C34A A41G, the “polymerase ribozyme fitness (log ratio)” value rises from -6.73 to -3.4.

First: G10A U54G G71C C102U A111U U129G
Second: G10A G47U A83G
The “polymerase ribozyme fitness (log ratio)” value of the first is lower: -5.93 for the first, -2.7 for the second.

First: G10A C49G G63U
Second: U9G C13A C22G G48A
The “polymerase ribozyme fitness (log ratio)” value of the first is higher: -0.848 for the first, -3.85 for the second.

Compared with G10A A29U G110A, G10A A29C C124U is higher in “polymerase ribozyme fitness (log ratio)” value: -2.97 for the first, -0.613 for the second.

Going from G10A U30A U54A to G10A G17C C56U, the “polymerase ribozyme fitness (log ratio)” value rises from -5.83 to -2.35.

First: U9G U38C A46C U59C A66U U81A
Second: U9G C86G A119U
The “polymerase ribozyme fitness (log ratio)” value of the first is lower: -5.6 for the first, 0.167 for the second.

First: U9G C40U U54A C85A
Second: G10A C34A C40U G71C G77U C88A G113A
The “polymerase ribozyme fitness (log ratio)” value of the first is higher: -1.24 for the first, -6.08 for the second.

Compared with U9G C11U A27G G47C U78C C86U, U9G A103U is lower in “polymerase ribozyme fitness (log ratio)” value: -2.22 for the first, -4.16 for the second.

First: G10A C11G C12U U96C C104U C123G U131G
Second: U9G U54A G69C U129C
The “polymerase ribozyme fitness (log ratio)” value of the first is higher: 2.08 for the first, -2.97 for the second.

Compared with U9G C12G A91C G127C U129A, U9G G23A C31U U38A C104A U112A A121C U126G is lower in “polymerase ribozyme fitness (log ratio)” value: -2.32 for the first, -6.73 for the second.

Going from U9G C102U to G10A C13U C22G G35C C101A U131G, the “polymerase ribozyme fitness (log ratio)” value falls from -1.48 to -4.66.

Compared with G10A C76U G110C, U9G C15U A90G C124A is higher in “polymerase ribozyme fitness (log ratio)” value: -5.64 for the first, 1.55 for the second.

First: G10A C86U U112A
Second: G10A C82A C102U
The “polymerase ribozyme fitness (log ratio)” value of the first is higher: 1.32 for the first, -1.68 for the second.

First: G10A C11U
Second: U9G U32C G52C
The “polymerase ribozyme fitness (log ratio)” value of the first is lower: -0.673 for the first, -0.471 for the second.

Going from U9G G45A U96G to U9G C72U, the “polymerase ribozyme fitness (log ratio)” value rises from -0.306 to 0.16.

Compared with U9G C11A G63C, U9G G19C C56A G69C is lower in “polymerase ribozyme fitness (log ratio)” value: -0.534 for the first, -6.2 for the second.

First: G10A G60U
Second: U9G G36C G69U A103C C104U
The “polymerase ribozyme fitness (log ratio)” value of the first is higher: -0.0901 for the first, -2.45 for the second.

Compared with U9G G60U G77A U78C C98A G113C, G10A C53U G63U is higher in “polymerase ribozyme fitness (log ratio)” value: -5.81 for the first, -0.334 for the second.

Compared with G10A A43G A119U, G10A C88A C123U is higher in “polymerase ribozyme fitness (log ratio)” value: -1.73 for the first, 1.69 for the second.

First: U9G A46U G60U A91C G117A
Second: U9G U14A A46U A68G
The “polymerase ribozyme fitness (log ratio)” value of the first is higher: -0.876 for the first, -4.4 for the second.

Going from U9G C13A U59A to U9G G47A C76A C82G U116A, the “polymerase ribozyme fitness (log ratio)” value falls from -0.0719 to -2.05.

Compared with U9G G45A A46C U106C, G10A C56U is higher in “polymerase ribozyme fitness (log ratio)” value: -0.292 for the first, 0.385 for the second.

First: G10A G48U G52A G77U
Second: U9G U21C C70U
The “polymerase ribozyme fitness (log ratio)” value of the first is lower: -2.41 for the first, -1.31 for the second.

First: G10A G36A C56A A105U U112A
Second: U9G G63U C64A C88A A119G
The “polymerase ribozyme fitness (log ratio)” value of the first is higher: -3.87 for the first, -6.72 for the second.

First: U9G A46G C73U A75G U96A U106G
Second: U9G A121U C123U
The “polymerase ribozyme fitness (log ratio)” value of the first is lower: -3.78 for the first, 2.06 for the second.

G10A A43G C76U C89U A111C and U9G A84C C98A C123A are within 0.2 log units of each other in “polymerase ribozyme fitness (log ratio)” value: -4 for the first, -4.03 for the second.

First: G10A C11G A27U G60A U78G C82A G93A A105G U109G
Second: U9G A66C C104U
The “polymerase ribozyme fitness (log ratio)” value of the first is lower: -6.59 for the first, -0.809 for the second.

Going from G10A C13U U55A C76U C97A U116G to U9G A41U G71A U81C U96A, the “polymerase ribozyme fitness (log ratio)” value rises from -6.1 to -5.71.

First: G10A G35A
Second: U9G C28A U133A
The “polymerase ribozyme fitness (log ratio)” value of the first is higher: -3.71 for the first, -4.24 for the second.

First: G10A G48C C64A G113A A119G C124G
Second: U9G G51A G60A C94A
The “polymerase ribozyme fitness (log ratio)” value of the first is lower: -6.38 for the first, -3.72 for the second.

First: G10A A16U C88A U92C G120U
Second: G10A U21G G44C C80U C123G
The “polymerase ribozyme fitness (log ratio)” value of the first is higher: -1.32 for the first, -2.04 for the second.

First: U9G A43U G52U C72A C82A
Second: G10A A29G
The “polymerase ribozyme fitness (log ratio)” value of the first is higher: -2.31 for the first, -2.58 for the second.

Compared with G10A A37U G117U U133A, G10A C70U C79U C82G G120C G128U is higher in “polymerase ribozyme fitness (log ratio)” value: -4.32 for the first, -2.34 for the second.

First: G10A C13A G39C U133A
Second: G10A G42U G110A
The “polymerase ribozyme fitness (log ratio)” value of the first is higher: -1.46 for the first, -4 for the second.

Going from G10A C13A A18G to G10A C15U G47A U112A C124A G127C, the “polymerase ribozyme fitness (log ratio)” value rises from -6.95 to -1.98.

First: U9G C13U C15A C40U G61C
Second: U9G G36A C70U
The “polymerase ribozyme fitness (log ratio)” value of the first is lower: -2.7 for the first, -0.939 for the second.

With U9G C76G A90C C101U the “polymerase ribozyme fitness (log ratio)” value was -1.34.

Source: the RNAGym collection of RNA variant scans (doi:10.1073/pnas.2313332121)
